B1: Max-interacting protein 1, residues 70 to 120; numbered along this chain, P50539 (parent)
chain: STHNELEKNRRAHLRLCLERLKVLIPLGPDCTRHTTLGLLNKAKAHIKKLE
B2: POU domain, class 2, transcription factor 2, residues 200 to 269; numbered along this chain, P09086 (parent)
chain: LEELEQFARTFKQRRIKLGFTQGDVGLAMGKLYGNDFSQTTISRFEALNLSFKNMCKLKPLLEKWLNDAE

Variants of: B1
Assay: abundance fitness (aPCA) (normalised: wild type 0, dead -1); higher = more abundant; growth selection in yeast, the domain comes from the species named
Settings: Homo sapiens

Abundance fitness, by site and new letter:
L50: M -0.446 | N -0.617 | P -0.353 | Q -0.377 | R -0.459 | V -0.616 | W 0.023 | Y -0.351
E51: A 0.495 | C 0.207 | D -0.197 | F 0.332 | G 0.355 | H 0.368 | I -0.459 | K 0.891 | L -0.182 | M 0.571 | N 0.504 | P -0.089 | Q -0.198 | R 0.452 | S 0.615 | T 0.462 | V 0.271 | W -0.059 | Y 0.374

Variants of: B2
Assay: as above
Settings: Homo sapiens

Abundance fitness: each site, then its substitutions
L1: C -0.496 | D -0.279 | F -0.028 | G 0.01 | I -0.11 | M -0.081 | N 0.008 | R -0.169 | S -0.027 | T 0.016 | V -0.061 | W -0.051
E2: A -0.14 | C -0.699 | D 0.054 | G -0.046 | H -0.366 | K -0.02 | M 0.173 | N 0.259 | P -0.689 | Q -0.171 | R -0.066 | T -0.274 | V -0.062 | W 0.039 | Y -0.106
E3: A -0.123 | C -0.187 | D -0.087 | F -0.208 | G -0.154 | I -0.078 | K -0.189 | L -0.137 | M -0.443 | N -0.107 | P -0.76 | Q -0.003 | R -0.162 | T -0.159 | V -0.085 | W -0.263 | Y -0.127
L4: A -0.181 | C -0.784 | D -0.64 | E -0.523 | F -0.055 | G -0.655 | H 0.052 | I 0.012 | K -0.797 | M -0.032 | N -0.763 | P -0.367 | Q -0.233 | R -0.485 | S -0.253 | T -0.11 | V -0.08 | W -0.201 | Y -0.408
E5: A 0.005 | C -0.07 | D -0.051 | F -0.214 | G -0.034 | H 0.074 | I -0.293 | L -0.093 | M 0.048 | N -0.224 | P -0.5 | Q -0.057 | R 0 | V -0.052 | W -0.073 | Y -0.161
Q6: A -0.095 | D 0.001 | E -0.045 | F -0.086 | G -0.048 | H -0.236 | I -0.028 | K 0.079 | L -0.066 | M 0.027 | N -0.141 | P -0.151 | R -0.019 | S 0.001 | T 0.003 | V -0.05 | W -0.086 | Y -0.056
F7: C -0.114 | D -0.595 | E -0.357 | H -0.416 | I -0.397 | K -0.783 | L -0.286 | M -0.226 | N -0.48 | P -1.13 | Q -0.676 | R -0.96 | T -0.281 | V -0.237 | W -0.1 | Y -0.192
A8: C 0.034 | D -0.883 | E -0.846 | F -0.708 | G -0.28 | H -0.604 | I -0.082 | K -0.856 | L -0.371 | P -0.506 | Q -0.63 | S -0.113 | T -0.065 | V -0.057 | W -0.452 | Y -0.955
R9: K -0.011 | Q -0.143
T10: A -0.035 | C -0.084 | D 0.022 | E 0.012 | F 0.003 | H -0.013 | I -0.052 | K -0.024 | M -0.011 | N 0.012 | P -1 | Q 0.015 | R -0.022 | S -0.016 | V -0.04 | W -0.142 | Y -0.025
F11: A -0.151 | C -0.143 | D -0.565 | E -0.977 | G -0.789 | I -0.254 | K -0.961 | L -0.177 | M -0.167 | N -1.1 | P -1.03 | Q -1.01 | R -1.01 | S -0.242 | T -0.495 | V -0.239 | W -0.209 | Y -0.627
K12: A -0.254 | E -0.147 | H -0.127 | I 0.02 | L -0.232 | N -0.583 | R -0.142 | S -0.022 | W -0.337
Q13: C -0.115 | D -0.04 | E 0.06 | F -0.032 | G -0.038 | H -0.085 | K -0.041 | L -0.033 | M -0.023 | N -0.07 | P -0.293 | R -0.054 | S -0.006 | T 0.001 | V -0.023 | W -0.172 | Y -0.169
R14: A -0.064 | D -0.327 | E -0.138 | G -0.021 | H -0.118 | I -0.261 | K 0.024 | M -0.061 | N 0.03 | P -1.23 | Q -0.084 | T 0.023 | V -0.128 | W -0.271 | Y -0.149
R15: A -0.977 | C -0.698 | E -0.897 | F -0.99 | G -1.01 | H -1.13 | I -0.85 | K -1.08 | L -0.806 | N -0.799 | P -1.16 | Q -1.04 | S -1 | T -1.01 | V -0.806 | W -0.913 | Y -0.243
I16: A -0.085 | C -0.149 | D -0.133 | E 0.048 | F -0.141 | G -0.095 | H -0.16 | K -0.021 | L -0.042 | M -0.06 | N -0.003 | P -0.895 | Q -0.013 | R -0.059 | S -0.071 | T 0.017 | V -0.039 | Y -0.194
K17: A -0.049 | C 0.011 | D 0.016 | E -0.082 | F -0.096 | G -0.027 | H -0.2 | I -0.072 | L -0.006 | M 0.001 | N 0.02 | Q -0.096 | R 0.006 | S -0.009 | T -0.07 | V -0.063 | W -0.129 | Y -0.121
L18: A -0.025 | C -0.213 | D -0.763 | E -0.253 | F -0.035 | G -0.159 | H -0.049 | I -0.099 | K -0.177 | M 0.014 | N -0.044 | P -1.05 | Q -0.053 | R -0.233 | S -0.193 | T -0.227 | V -0.234 | W -0.216 | Y -0.16
G19: C -0.349 | D -0.143 | E -0.301 | F -0.461 | H -0.086 | I -0.793 | K -0.092 | L -0.321 | M -0.268 | N -0.022 | P -0.98 | Q -0.498 | R -0.128 | S -0.118 | T -0.521 | V -0.986 | W -0.926 | Y -0.908
F20: A -0.006 | D -0.899 | H -0.035 | I -0.101 | K 0.005 | L -0.004 | N -0.427 | P -1.01 | Q -0.081 | R -0.083

— the Human Domainome abundance scans (Beltran et al. 2025)
